Experimental data reported in patent US20230331828A1 (published 2023).
Changes are numbered by the printed parent chain. “And” between values parts separate entries of the source, which are not always exact repeats. Equal entries are not always repeated.

B1: h2731 Fab (Fab, V domains shown)
VH: EVQLLESGGGLVQPGGSLRLSCAASGFTFSNYGMSWVRQAPGKGLEWVASIRSGSGRTYYSDNVKGRFTISRDNSKNTLYLQMNSLRAEDTAVYYCVRYDHYSGSSDYWGQGTLVTVSS
VL: DVVMTQSPLSLPVTLGEPASISCKSSQSLLDYDGKTYLNWLLQKPGQSPQRLIYRVTNRDTGVPDRFSGSGSGTDFTLKISRVEAEDVGVYYCWQGTHFPRSFGQGTKVEIK
B2: h2831 Fab (Fab, V domains shown)
VH: B1 VH with Y32F, I51V, S105T
VL: B1 VL
B3: h2726 Fab (Fab, V domains shown)
VH: B1 VH
VL: B1 VL with L15P, R55K, T57S, T61S, S102T
B4: h2931 Fab (Fab, V domains shown)
VH: B1 VH with Y32F, I51V, S103T, S105T
VL: B1 VL
B5: h2731 (antibody, V domains shown)
VH: B1 VH
VL: B1 VL
notes: Humanized IgG mAb; Only the variable domains are tied to the construct
B6: h2931 (antibody, V domains shown)
VH: B1 VH with Y32F, I51V, S103T, S105T
VL: B1 VL
notes: also called PB-0576
B7: h2726 (antibody, V domains shown)
VH: B1 VH
VL: B1 VL with L15P, R55K, T57S, T61S, S102T
notes: Humanized IgG mAb; Only the variable domains are tied to the construct; also called PB-0573
B8: h2831 (antibody, V domains shown)
VH: B1 VH with Y32F, I51V, S105T
VL: B1 VL
notes: Humanized IgG mAb; also called PB-0575
B9: bapineuzumab Fab (Fab, V domains shown)
VH: B1 VH with S55G
VL: B1 VL with L15P, Y32S, R55L, T57S, N58K, R59L, T61S, S102T
notes: also called hBP

molecular target: T1, Aβ1-42 fibrils (human); assay: SPR (BIAcore T200); Aβ1-42 fibrils immobilized, Fab as analyte; global 1:1 fit
T1 construct: Aβ1-42 polypeptide, HFIP-treated, incubated in 10 mM HCl at 37 C for 24 h, pelleted fibrillar fraction, sonicated; Multimeric fibril; also called fibril Aβ42; fibrillar Aβ42
T1 sequence (peptide, as listed by the source): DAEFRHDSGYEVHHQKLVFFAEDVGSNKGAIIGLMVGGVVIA
Procedure: (§1) Fibrils were immobilized on sensor chip CMS (GE Healthcare Life Sciences) via amine coupling to a level to ensure a maximum binding of analyte of approximately 100 RU. Various concentrations of antibodies or Fabs (ranging from 1 nM to 100 nM) were passed over the coupled ligand at 30 μL/min in running buffer (HBS+0.05% P-20, 1 mg/mL BSA) for 300 s association time and 1200 s dissociation time. Regeneration of the chip surface was accomplished by 2 short injections of 10 mM Glycine-HCl at pH 1.7. Data was blank-subtracted to both a sensor not containing ligand and 0 nM analyte concentration. Analysis was performed using a global 1:1 fit with BIAcore Insight Evaluation software (v2.0) with bulk refractive index set to zero RU.

Binder	koff [s⁻¹]	kon [M⁻¹ s⁻¹]
B1	0.000289	129000
B2	0.000248	108000
B3	0.000259	129000
B4	0.000199	123000

molecular target: T2, Aβ1-28 (human); assay: SPR (Biacore T200); antibody captured by anti-human Fc, Aβ1-28 as analyte; global 1:1 fit
T2 construct: Bought peptide (Bachem); also called Aß1-28 monomer; A131-28
T2 sequence (peptide, as listed by the source): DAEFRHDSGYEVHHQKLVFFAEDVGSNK
Procedure: (§2) Determination of binding affinity of anti-Aß candidates to Aß₁₋₂₈ (Bachem, Torrance, CA) was performed using a Biacore T200. Anti-human Fc antibody was immobilized to a CM3 sensor chip (GE Healthcare Life Sciences) via amine coupling and used to capture Aß antibodies.
(§3) Various concentrations of Aß₁₋₂₈ (analyte, ranging from concentrations of 100 nM down to 0.39 nM, serial diluted 2-fold each dilution step) were passed over the captured ligand at 50 μl/min in running buffer (HBS+0.05% P-20, 1 mg/mL BSA) for 240 s association time and 900 s dissociation time. Data were blank subtracted to both an irrelevant sensor not containing ligand, and buffer runs containing 0 nM analyte concentration. Analysis was performed using a global 1:1 fit with Biacore Evaluation software (v3.0).

Binder	koff [s⁻¹]	kon [M⁻¹ s⁻¹]
B5	0.000595	119000
B6	0.000412	94700
B7	0.000555	92300
B8	0.000508	73100

molecular target: T1, Aβ1-42 fibrils; assay: SPR (BIAcore T200); Aβ1-42 fibrils immobilized, antibody as analyte; global 1:1 fit
Procedure: (§4) Fibrils were immobilized on sensor chip CMS (GE Healthcare Life Sciences) via amine coupling to a level to ensure a maximum binding of analyte of approximately 50 RU. […] Regeneration of the chip surface was accomplished by 2 short injections of 10 mM Glycine-HCl pH 1.7. Data was blank subtracted to both a sensor not containing ligand and 0 nM analyte concentration. Analysis was performed using a global 1:1 fit with BIAcore Insight Evaluation software (v2.0) with bulk refractive index set to zero RU.

Binder	koff [s⁻¹]	kon [M⁻¹ s⁻¹]
B5	2.62e-05	372000
B6	2.05e-05	335000
B7	2.12e-05	393000
B8	2.94e-05	265000

molecular target: T2, Aβ1-28; assay: SPR (Biacore T200); antibody captured by anti-human Fc, Aβ1-28 as analyte; global 1:1 fit; apparent KD
Procedure: as §2, §3

Binder	Kd [nM]
B5	5.01
B6	4.35
B7	6.01
B8	6.95

molecular target: soluble Aβ oligomers (Example 8) (UniProt P05067 672-713, biotin on the biotinylated preparation and on one tenth of the 9:1 mixture (position not given)); assay: direct ELISA; plate coated with soluble Aβ oligomers, antibody titrated
Procedure: The samples were incubated for 2 hours at room temperature. Plates were washed 4 times with TBS. 0.1% tween 20. Goat anti-human (H+L) HRP (Jackson Immunoresearch, PA) was diluted 1/5000 in 0.1% BSA/PBS 0.1% tween 20, added at 100 μl/well and incubated 1 hour at room temperature. Plates were washed 4 times and o-phenylenediamine dihydrochloride tablets (ThermoFisher) were prepared as per manufacturer instructions. 100 μl was added per well and incubated for 15 minutes at room temperature. […] Curves and resulting EC₅₀ estimations represent nonlinear 3-parameter least-squares fit of data using GraphPad Prism software.

Binder	EC50
B6	0.023 µg/mL and 0.15 nM

molecular target: T3, Aβ pathology (plaques) in human AD brain tissue (human, UniProt P05067 672-713); assay: IHC on frozen human AD brain sections, brain AD 11-97; % stained area against antibody concentration (0.03-9 µg/ml)
T3 construct: Native tissue deposits, heterogeneous; also called tissue Aβ pathology; Aβ plaques
Procedure: (§5) Tissue Sectioning and Fixation. The unfixed frozen brain tissue samples were embedded in Tissue-Tek OCT (Sakura Finetek) in cryomolds dipped in a mixture of 2-methylbutane and dry ice slurry (−60° C.) then stored at −80° C. until sectioning. Serial 10 μm thick cryosections were generated using a Leica 3050S cryostat. The sections were directly thaw-mounted on positively charged glass slides and were stored at −20° C. until use. Prior to immunohistochemistry IHC procedures, the slides were immersed in 10% neutral buffered formalin solution for 10 minutes at 4° C., rinsed in PBS, then incubated for an hour at 37° C. in a glucose oxidase solution (20 mM beta D(+) glucose, 2 mM sodium azide, and 2 units/mL glucose oxidase in 1×PBS). The slides were rinsed 3 times for 5 minutes in PBS before they were transferred onto staining racks for processing in an automated stainer.
(§6) Antibody biotinylation. The humanized IgG antibodies were biotinylated using a non-covalent method, by means of incubation with a biotin-conjugated goat anti-human monovalent fab fragment (Jackson ImmunoResearch) in a ratio of 1:4, for 1 hour at room temperature. Unbound excess Fab was absorbed by pre-incubation with human serum for an additional hour before use. The freshly prepared antibodies were then loaded into the stainer for immediate application to tissue sections.
(§7) Immunostaining. The staining was performed in an automated Leica Bond Rx Stainer (Leica Biosystems), using the Bond Research Kit (DS980, Leica Biosystems) and the avidin-biotin amplified immuno-peroxidase detection system. Each biotinylated anti-Aβ antibody, or a human IgG control, was applied to the sections, at specified concentrations, for one hour and the staining was visualized using the avidin-biotin amplification system (ABC Elite Standard, PK-6100; Vector Laboratories). Hematoxylin counter-staining of nuclei was subsequently applied to sections before dehydration in an ascending series of alcohols, clearing in xylene, cover-slipping, and air-drying.

Binder	Area Under Curve
B5	50.6
B6	47.7
B7	50.2
B8	49.2

molecular target: T1, Aβ1-42 fibrils; assay: SPR (BIAcore T200); Aβ1-42 fibrils immobilized, antibody as analyte; global 1:1 fit; apparent KD (avidity)
Procedure: as §4

Binder	Kd [nM]
B5	0.0704
B6	0.0612
B7	0.054
B8	0.111

molecular target: T1, Aβ1-42 fibrils; assay: competition ELISA; plate coated with fibril Aβ42; competitor hBP-biotin; IC50 of test divided by IC50 of hBP
Procedure: To generate fibrils, Aβ 1-42 polypeptides, previously treated with HFIP (hexafluoroisopropanol) and dried, were resuspended in DMSO to 5 mM, then further diluted to 100 uM with 10 mM HCl. Samples were incubated at 37° C. for 24 h, and then centrifuged to separate soluble and fibrillar species. The pellet was the resuspended in 1×D-PBS to the original volume and sonicated before use.
Plates were coated with 0.5 mg/ml of fibril Aβ 42 and blocked, e.g., with 1% BSA/PBS. […] 100 ul of GE Streptavidin HRP diluted 1/10,000 was then added and incubated for 30 minutes. Plates were then washed 6× with TTBS. Thermo Fisher o-phenylenediamine dihydrochloride (OPD) substrate was prepared fresh per manufacturers direction, and 100 ul per well was added. The reaction was incubated for 15 minutes and the reaction stopped with 50 ul 2N H₂SO₄.

Binder	IC50 ratio (test:hBP) [ratio]
B5	0.61
B6	0.59
B7	0.68
B8	0.77

molecular target: T1, Aβ1-42 fibrils; assay: SPR (BIAcore T200); Aβ1-42 fibrils immobilized, Fab as analyte; global 1:1 fit; apparent KD
Procedure: as §1

Binder	Kd [nM]
B1	2.24
B2	2.31
B3	2.01
B4	1.62
B9	5.34

molecular target: T3, Aβ pathology (plaques) in human AD …; assay: IHC on frozen human AD brain sections, brain AD 15-19; % stained area against antibody concentration (0.03-9 µg/ml)
Procedure: as §5, §6, §7

Binder	Area Under Curve
B5	52.7
B6	44.8
B7	52.1
B8	49.7

molecular target: T4, AβpE3-42 (human, N-terminal pyroglutamate at position 3 of Aβ); assay: direct binding to AβpE3-42 (FIG. 27)
T4 construct: also called pyroglutamate-3 Aβ; pyroglutamate-modified Aβ
T4 sequence (peptide, as listed by the source): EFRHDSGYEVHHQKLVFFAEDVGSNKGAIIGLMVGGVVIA

Binder	binding result
B5	no binding (tested: 100 ng/ml)

molecular target: T3, Aβ pathology (plaques) in human AD …; assay: IHC on frozen human AD brain sections, brain AD 13-75; % stained area against antibody concentration (0.03-9 µg/ml)
Procedure: as §5, §6, §7

Binder	Area Under Curve
B5	150
B6	139
B7	149
B8	139

molecular target: soluble Aβ (Aβ42) aggregates (human, unlabeled, biotinylated or 9:1 unlabeled:biotinylated (position of biotin not stated)); assay: cell-based or functional assay

Binder	blockade of binding of soluble Aβ to rat hippocampal neurons at 1:50 molar mAb:Aβ42 ratio [%]
B5	> 90

molecular target: T1, Aβ1-42 fibrils; assay: direct binding to fibrillar Aβ1-42 (FIG. 27)

Binder	EC50
B5	0.0081 µg/mL and 0.054 nM

molecular target: T3, Aβ pathology (plaques) in human AD …; assay: IHC on frozen human AD brain sections, brain AD 14-11; % stained area against antibody concentration (0.03-9 µg/ml)
Procedure: as §5, §6, §7

Binder	Area Under Curve
B5	149
B6	134
B7	149
B8	149
